Results reported in paper PMC9572316, “Ultrathin Covalent Organic Framework Nanosheets/Ti3C2Tx-Based Photoelectrochemical Biosensor for Efficient Detection of Prostate-Specific Antigen”.

Biological target: prostate-specific antigen (PSA) (UniProt P07288 25-261)
Assay: photoelectrochemical aptasensor (aptamer immobilized on TTPA-CONs/Ti3C2Tx/GCE); 10 ng/mL PSA; photocurrent falls from 3.6 to 1.8 uA after PSA; BSA-blocked electrode; PSA incubated 120 min at 4 °C on BSA-blocked aptamer electrode; photocurrent in 0.1 M phosphate buffer pH 7.4, room temperature, no bias (Section 2.3 states Tris-HCl pH 7.4 as optimum)
Settings: protein: commercial

Chain of prostate-specific antigen (PSA) (P07288 25-261): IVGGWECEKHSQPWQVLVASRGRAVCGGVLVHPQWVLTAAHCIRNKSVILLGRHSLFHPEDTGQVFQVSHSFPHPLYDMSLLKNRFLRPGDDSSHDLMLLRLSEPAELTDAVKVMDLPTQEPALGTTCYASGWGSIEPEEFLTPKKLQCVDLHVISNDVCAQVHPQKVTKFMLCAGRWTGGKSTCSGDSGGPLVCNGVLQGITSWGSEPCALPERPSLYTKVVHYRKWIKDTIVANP

B1: PSA aptamer (NH2-C6) (ssDNA)
DNA: ATTAAAGCTCGCCATCAAATAGC
modifications: 5'-NH2-C6
- binding result: binds
